# In IntAct's records for PubMed 22118466:
# B1: Vesicle-associated membrane protein 8 (Mus musculus), O70404 (parent)
# chain: MEEASGSAGNDRVRNLQSEVEGVKNIMTQNVERILSRGENLDHLRNKTEDLEATSEHFKTTSQKVARKFWWKNVKMIVIICVIVLIIVILIILFATGTIPT
# partner: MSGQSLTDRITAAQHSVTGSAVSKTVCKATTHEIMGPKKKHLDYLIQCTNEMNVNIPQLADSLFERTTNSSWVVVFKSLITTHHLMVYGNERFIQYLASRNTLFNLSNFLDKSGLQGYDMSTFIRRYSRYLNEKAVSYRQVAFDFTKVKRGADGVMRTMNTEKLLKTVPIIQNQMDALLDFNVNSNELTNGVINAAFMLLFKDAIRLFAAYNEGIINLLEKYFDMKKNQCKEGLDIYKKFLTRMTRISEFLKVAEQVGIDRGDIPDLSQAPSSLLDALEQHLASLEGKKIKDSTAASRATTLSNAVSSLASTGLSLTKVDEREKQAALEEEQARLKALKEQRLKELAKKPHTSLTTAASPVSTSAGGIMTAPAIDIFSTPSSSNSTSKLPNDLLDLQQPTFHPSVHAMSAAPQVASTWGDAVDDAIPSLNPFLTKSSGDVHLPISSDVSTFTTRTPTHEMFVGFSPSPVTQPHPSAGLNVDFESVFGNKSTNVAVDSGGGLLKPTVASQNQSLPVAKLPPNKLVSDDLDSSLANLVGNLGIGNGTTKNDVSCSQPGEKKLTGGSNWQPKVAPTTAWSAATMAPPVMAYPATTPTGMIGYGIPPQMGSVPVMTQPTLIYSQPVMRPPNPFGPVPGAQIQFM
# B2: Phosphatidylinositol-binding clathrin assembly protein (Rattus norvegicus (Rat)), O55012 (parent)
# chain: B1 partner
# partner: B1 chain
# Variants of: B1
# Details: with pical_rat Picalm, O55012
row,effect of a mutation on the interaction,Variant
1,disrupting interaction,K24A;M27A
2,disrupting interaction,L16P;V23P

# Variants of: B2
# Details: with vamp8_mouse Vamp8, O70404
row,effect of a mutation on the interaction,Variant
1,disrupting interaction,M244K

# Variants of: B2
# Details: with vamp8_mouse Vamp8, O70404
# Remark: another data set of the same source
row,Variant,effect of a mutation on the interaction
1,D224K,disrupting interaction
2,L219S,disrupting interaction

# Results, then the variant that gave them:
row,effect of a mutation on the interaction,Variant
1,disrupting interaction,I247D
2,disrupting interaction,L251S
3,disrupting interaction,F240A
